The text below walks through data of paper PMC5600358.

First the molecules themselves.
B1: ds59 (Pu59/Py59) (dsDNA)
DNA 1: GGCGGCGCGGAGGGGCGGGCGCGGGAGGAAGGGGGCGGGACGGGGCTGTGGTGCCTGT
DNA 2: ACAGGCACCACAGCCCCGTCCCGCCCCCTTCCTCCCGCGCCCGCCCCTCCGCGCCGCC
B2: Pu59 (G-strand) (structured_DNA)
DNA: B1 DNA 1
B3: Py59 (C-strand) (ssDNA)
DNA: B1 DNA 2

This data set deals with WT1 ZF-KTS (zinc finger domain, -KTS isoform) (Homo sapiens (cDNA from HL-60 cells), UniProt P19544 312-407+411-449, internal_change). The data set is described as follows: EMSA.
As for B1, the binding result is recorded as “binds”. Consider B2, for which the binding result is “no binding”. As for B3, the binding result is “no binding”.
